Literature values as cited in publication PMC8329073.

Target: Thrombin (UniProt P00734+P00734)
Details: 20 mM Tris-HCl pH 7.5 (22 °C), 100 mM NaCl, 0.1 mM EDTA, 5 mM MgCl2 (20 mM MgCl2 for DNAzyme), room temperature; indirect read-out by strand-displacement …

For thrombin DNA aptamer (parent, ref 67), the Kd is given as 0.5 nM.
